Results as given in IntAct's records for PubMed 21074049.

B1: ERAD-associated E3 ubiquitin-protein ligase HRD1 (Saccharomyces cerevisiae), Q08109 (parent)
chain: MVPENRRKQLAIFVVVTYLLTFYCVYSATKTSVSFLQVTLKLNEGFNLMVLSIFILLNSTLLWQLLTKLLFGELRLIEHEHIFERLPFTIINTLFMSSLFHERYFFTVAFFGLLLLYLKVFHWILKDRLEALLQSINDSTTMKTLIFSRFSFNLVLLAVVDYQIITRCISSIYTNQKSDIESTSLYLIQVMEFTMLLIDLLNLFLQTCLNFWEFYRSQQSLSNENNHIVHGDPTDENTVESDQSQPVLNDDDDDDDDDRQFTGLEGKFMYEKAIDVFTRFLKTALHLSMLIPFRMPMMLLKDVVWDILALYQSGTSLWKIWRNNKQLDDTLVTVTVEQLQNSANDDNICIICMDELIHSPNQQTWKNKNKKPKRLPCGHILHLSCLKNWMERSQTCPICRLPVFDEKGNVVQTTFTSNSDITTQTTVTDSTGIATDQQGFANEVDLLPTRTTSPDIRIVPTQNIDTLAMRTRSTSTPSPTWYTFPLHKTGDNSVGSSRSAYEFLITNSDEKENGIPVKLTIENHEVNSLHGDGGEQIAKKIVIPDKFIQHI
partner: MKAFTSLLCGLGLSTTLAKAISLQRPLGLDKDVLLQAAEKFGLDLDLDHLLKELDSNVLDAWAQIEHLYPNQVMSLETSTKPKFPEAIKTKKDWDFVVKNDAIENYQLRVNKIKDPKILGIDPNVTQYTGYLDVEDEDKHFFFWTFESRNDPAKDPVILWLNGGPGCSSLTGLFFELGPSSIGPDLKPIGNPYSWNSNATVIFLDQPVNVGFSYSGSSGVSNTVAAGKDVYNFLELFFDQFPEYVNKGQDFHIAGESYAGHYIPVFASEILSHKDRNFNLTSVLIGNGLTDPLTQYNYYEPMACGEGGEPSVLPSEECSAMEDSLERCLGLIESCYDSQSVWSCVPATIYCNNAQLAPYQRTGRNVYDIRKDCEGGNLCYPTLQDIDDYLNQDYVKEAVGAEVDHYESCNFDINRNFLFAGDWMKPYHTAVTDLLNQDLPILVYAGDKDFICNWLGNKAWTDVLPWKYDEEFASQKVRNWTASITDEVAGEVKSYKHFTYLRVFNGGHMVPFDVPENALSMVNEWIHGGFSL

Variants of: B1
Details: with cbpy_yeast PRC1, P00729

| effect of a mutation on the interaction | Variant |
| --- | --- |
| decreasing interaction | MVPENRRKQLAIFVVVTYLLTFYCVYSATKTSVSFLQVTLKLNEGFNLMVLSIFILLNSTLLWQLLTKLLFGELRLIEHEHIFERLPFTIINTLFMSSLFHERYFFTVAFFGLLLLYLKVFHWILKDRLEALLQSINDSTTMKTLIFSRFSFNLVLLAVVDYQIITRCISSIYTNQKSDIESTSLYLIQVMEFTMLLIDLLNLFLQTCLNFWEFYRSQQSLSNENNHIVHGDPTDENTVESDQSQPVLNDDDDDDDDDRQFTGLEGKFMYEKAIDVFTRFLKTALHLSMLIPFRMPMMLLKDVVWDILALYQSGTSLWKIWRNNKQLDDTLVTVTVEQLQNSANDDNICIICMDELIHSPNQQTWKNKNKKPKRLPCGHILHLSCLKNWMERSQTCPISRLPVFDEKGNVVQTTFTSNSDITTQTTVTDSTGIATDQQGFANEVDLLPTRTTSPDIRIVPTQNIDTLAMRTRSTSTPSPTWYTFPLHKTGDNSVGSSRSAYEFLITNSDEKENGIPVKLTIENHEVNSLHGDGGEQIAKKIVIPDKFIQHI [C399S] |
